Laboratory results as given in the supplement of paper PMC7877785.
± gives the uncertainty stated by the source.

Test: self-splicing fitness, log relative to wild type (ln ratio); higher = more splicing; Tetrahymena group I intron in knt gene, E. coli kanamycin selection, DiMSum; sequences stand for … in CUCUCU…GGAGGGAAAAGUUAUCAGGCAUGCACCUGGUAGCUAGUCUUUAAACCAAUAGAUUGCAUCGGUUUAAAAGGCAAGACCGUCAAAUUGCGGGAAAGGGGUCAACAGCCGUUCAGUACCAAGUCUCAGGGGAAACUUUGAGAUGGCCUUGCAAAGGGUAUGGUAAUAAGCUGACGGACAUGGUCCUAACCACGCAGCCAAGUCCUAAGUCAACAGAUCUUCUGUUGAUAUGGAUGCAGUUCACAGACUAAAUGUCGGUCGGGGAAGAUGUAUUCUUCUCAUAAGAUAUAGUCGGACCUCUCCUUAAUGGGAGCUAGCGGAUGAAGUGAUGCAACACUGGAGCCGCUGGGAACUAAUUUGUAUGCGAAAGUAUAUUGAUUAGUUUUGGAGUACUCGUGGUCG
Method in brief: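 DiMSum derived fitness as the error-weighted combination of fold changes across replicates, kanamycin versus no kanamycin, normalised to wild type. E. coli BL21(DE3) held the library, which randomised all eight P1ex-region intron nucleotides within the knt kanamycin-resistance gene on pET-22b(+). Six replicate transformations grew overnight at 37°C or 30°C on LB agar with or without 25 μg/mL kanamycin, also containing 100 μg/mL carbenicillin, 50 μM IPTG and 0.2% rhamnose, and pooled colonies were amplicon-sequenced on an Illumina HiSeq 2500.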

Sequence	self-splicing fitness (ln) (30 °C)	self-splicing fitness (ln) (37 °C)
UGCUAGCAAUAUUACGUUGA	-2.84 ± 0.18	-2.43 ± 0.24
CAGUAGCAAUAUUACGGUCU	-3.35 ± 0.15	-1.89 ± 0.14
AGAUAGCAAUAUUACGGAGU	-3.25 ± 0.15	-2.33 ± 0.15
AUCAAGCAAUAUUACGCCCA	-0.266 ± 0.15	0.0648 ± 0.2
GUCUAGCAAUAUUACGCUUG	-1.22 ± 0.11	-0.705 ± 0.11
AGCCAGCAAUAUUACGGCCU	-2.07 ± 0.14	-0.992 ± 0.15
UUGUAGCAAUAUUACGAAGA	-3.14 ± 0.33	
CCGGAGCAAUAUUACGUUUG	-1.54 ± 0.15	-0.756 ± 0.15
GAUAAGCAAUAUUACGAGCC	-1.5 ± 0.17	-1.27 ± 0.23
GUCUAGCAAUAUUACGCGUC	-2.18 ± 0.099	-0.0852 ± 0.1
CAGUAGCAAUAUUACGGCAA	-3.53 ± 0.39	-1.86 ± 0.27
CAAUAGCAAUAUUACGUUUA	-3.6 ± 0.19	-2.13 ± 0.14
UGACAGCAAUAUUACGUCAU	-3.99 ± 0.27	-2.48 ± 0.18
GUCCAGCAAUAUUACGAGAU	-2.92 ± 0.13	-1.32 ± 0.11
GAACAGCAAUAUUACGACGG	-3.4 ± 0.19	-1.81 ± 0.18
GGGAAGCAAUAUUACGUGAA	-2.39 ± 0.18	-0.692 ± 0.17
CGUAAGCAAUAUUACGUUGU	-3.29 ± 0.18	-2.53 ± 0.22
CUGCAGCAAUAUUACGACGG	-2.75 ± 0.17	-0.0134 ± 0.14
CCGUAGCAAUAUUACGAAAG	-1.37 ± 0.088	0.537 ± 0.1
UAGAAGCAAUAUUACGAAAG	-1.97 ± 0.21	-1.26 ± 0.18

Sequence	self-splicing fitness (ln) (30 °C)	self-splicing fitness (ln) (37 °C)
UCACAGCAAUAUUACGUAUC	-4.32 ± 0.46	-2.75 ± 0.19
GCGUAGCAAUAUUACGGUCG	-0.963 ± 0.16	-1.07 ± 0.27
GCUGAGCAAUAUUACGCAUG	-2.68 ± 0.13	-1.92 ± 0.17
GAGGAGCAAUAUUACGAGCG	-3.24 ± 0.35	-1.55 ± 0.28
UCAGAGCAAUAUUACGGAAC	-2.43 ± 0.2	-2.49 ± 0.26
AUGCAGCAAUAUUACGAGUG	-2.88 ± 0.11	-1.64 ± 0.11
GGGCAGCAAUAUUACGCAGG	-2.6 ± 0.18	-1.03 ± 0.19
CCUCAGCAAUAUUACGUGGU	-3.93 ± 0.11	-2.5 ± 0.13
CUUUAGCAAUAUUACGGUGA		-2.08 ± 0.3
GACGAGCAAUAUUACGGCUA	-0.73 ± 0.11	-0.653 ± 0.11
UUGUAGCAAUAUUACGAAUU	-1.53 ± 0.34	-1.47 ± 0.38
UAUCAGCAAUAUUACGCAGC	-2.17 ± 0.19	-1.53 ± 0.18
UCUCAGCAAUAUUACGGAUU	-1.73 ± 0.097	-1.15 ± 0.11
AUCCAGCAAUAUUACGUAAC	-1.82 ± 0.13	-1.91 ± 0.22
CGAGAGCAAUAUUACGGAGG	-2.7 ± 0.49	
UGUUAGCAAUAUUACGACGU	-0.716 ± 0.11	-1.37 ± 0.1
AGCAAGCAAUAUUACGUCGC		-0.083 ± 0.23
UCUGAGCAAUAUUACGGUUC		-2.51 ± 0.4
CCAUAGCAAUAUUACGCUCC	-2.97 ± 0.49	
